Tested on: T1, CadX (single-chain homodimer, two identical CadX copies joined by GGGGSGGGGSGGGGS linker) (Streptococcus suis GZ0565), ORF:24397d24
T1 sequence: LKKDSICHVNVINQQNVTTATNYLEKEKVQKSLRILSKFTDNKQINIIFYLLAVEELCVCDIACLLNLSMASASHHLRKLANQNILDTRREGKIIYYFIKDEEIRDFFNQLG
Assay: EMSA

TTTGGATGGCAGGGCTTTTTTATATTTGGTACACTAACTTCTTATCTATATTTTGGTGGAGCTGAAGTTGACATCTACAATGTTTAATGTTAGAATACATTCAAAAATATATTTGAATGAGGTCTTTT (double strand) [cadDX promoter fragment]
binding: binds

— PMC11430099
